Drawing on paper doi:10.1101/2022.12.06.519310, this text covers Kd for one molecule.

The assay has as its target WDR5_(WD40), as used in the ITC (human). Description: ITC. (In general: Isothermal titration calorimetry measures the heat released or taken up as one component is titrated into another.)

B1: unmodified H3 tail peptide of the ITC (H3K4unmodQ5unmod) (peptide)
chain: ARTKQTARKSTGGKA
modifications: not checked
One may read the Kd as the free concentration of one partner at which half of the binding sites on the other are occupied at equilibrium, for simple one-to-one binding. Molecule B1 gave a Kd of 20.2 µM. That is a double-digit micromolar value.
